Source: paper PMC2627783 (Biochemistry, 2008)

Target: T1, HscA (UniProt P0A6Z1 1-616)
T1 sequence (looked up): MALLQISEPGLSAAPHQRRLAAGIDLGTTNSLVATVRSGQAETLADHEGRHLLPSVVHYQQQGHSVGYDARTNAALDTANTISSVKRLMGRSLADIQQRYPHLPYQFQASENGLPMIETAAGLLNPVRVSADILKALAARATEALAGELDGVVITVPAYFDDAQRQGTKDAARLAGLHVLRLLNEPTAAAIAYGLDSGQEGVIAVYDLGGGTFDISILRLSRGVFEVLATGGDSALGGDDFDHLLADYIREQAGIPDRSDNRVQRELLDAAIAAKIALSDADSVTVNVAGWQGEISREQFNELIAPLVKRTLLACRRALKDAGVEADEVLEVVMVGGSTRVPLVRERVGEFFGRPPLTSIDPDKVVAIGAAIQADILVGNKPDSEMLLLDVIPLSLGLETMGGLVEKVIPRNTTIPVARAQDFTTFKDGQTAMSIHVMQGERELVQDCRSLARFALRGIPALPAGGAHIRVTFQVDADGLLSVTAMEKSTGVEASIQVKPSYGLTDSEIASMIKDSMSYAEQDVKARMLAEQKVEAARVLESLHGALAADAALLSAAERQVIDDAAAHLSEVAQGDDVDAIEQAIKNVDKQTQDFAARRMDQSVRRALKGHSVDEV
Assay: cell-based or functional assay

HscA ATPase activity, 23 °C, in the absence of IscU: maximal stimulation: 4.4 fold
B1: HscB (wild type) (natural protein, E. coli, UniProt P0A6L9 1-171, looked up)
chain: MDYFTLFGLPARYQLDTQALSLRFQDLQRQYHPDKFASGSQAEQLAAVQQSATINQAWQTLRHPLMRAEYLLSLHGFDLASEQHTVRDTAFLMEQLELREELDEIEQAKDEARLESFIKRVKKMFDTRHQLMVEQLDNETWDAAADTVRKLRFLDKLRSSAEQLEEKLLDF
